Experimental data reported in patent publication US11702475B2, “Cysteine engineered fibronectin type III domain binding molecules” (Janssen Biotech, Inc., priority 2013, dated 2023).

Columns and labels:
[1] = target: T1, EGFR on A431 cells (EGF binding) (Homo sapiens, UniProt P00533); experiment: A431 cell EGF competition assay; conditions: biotinylated EGF 30 ng/mL
T1 construct: A431 cells (American Type Culture Collection, cat. #CRL-1555) over-express EGFR; host or cells: A431
Description: To better characterize the mechanism of EGFR binding, the ability of various identified FN3 domain clones to bind EGFR in an EGF-competitive manner was measured using A431 cells and run in parallel with the A431 binding assay screen. A431 cells were plated at 5,000/well in opaque black 96-well plates and allowed to attach overnight at 37° C., in a humidified 5% CO2 atmosphere. Cells were incubated with 50 μL/well of 1:1,000 diluted bacterial lysate for 1 hour at room temperature in triplicate plates. Biotinylated EGF (Invitrogen, cat. #E-3477) was added to each well to give a final concentration of 30 ng/mL and incubated for 10 minutes at room temperature. Cells were washed 3 times with 150 μL/well of FACS stain buffer. […] Cells were washed 3 times with 150 μL/well of FACS stain buffer, after which wells were filled with 100 μL of FACS stain buffer and read for fluorescence at 600 nm using an Acumen eX3 reader.
A431 cells were plated at 5,000/well in opaque black 96-well plates and allowed to attach overnight at 37° C., in a humidified 5% CO2 atmosphere. […] Cells were washed 3 times with 150 μL/well of FACS stain buffer, after which wells were filled with 100 μL of FACS stain buffer and read for fluorescence at 600 nm using an Acumen eX3 reader. […]

[2] = target: EGFR (Homo sapiens, UniProt P00533); experiment: Inhibition of EGF-stimulated EGFR phosphorylation in A431 cells (phospho-EGFR assay); type: cell-based; conditions: 50 ng/mL EGF, EGFR Tyr1173
Description: Purified EGFR-binding FN3 domains were tested for their ability to inhibit EGF-stimulated phosphorylation of EGFR in A431 cells at a single concentration. EGFR phosphorylation was monitored using the EGFR phospho(Tyr1173) kit (Meso Scale Discovery). Cells were plated at 20,000/well in clear 96-well tissue culture-treated plates (Nunc) in 100 μL/well of RPMI medium (Gibco) containing GlutaMAX™ with 10% fetal bovine serum (FBS) (Gibco) and allowed to attach overnight at 37° C. in a humidified 5% CO2 atmosphere. Culture medium was removed completely and cells were starved overnight in 100 μL/well of medium containing no FBS at 37° C. in a humidified 5% CO2 atmosphere. […] Signals were detected by addition of 150 μL/well of Read Buffer (Meso Scale Discovery) and reading on a SECTOR® Imager 6000 instrument (Meso Scale Discovery) using manufacturer-installed assay-specific default settings. Percent inhibition of the EGF-stimulated positive control signal was calculated for each EGFR-binding FN3 domain.
Data were plotted as electrochemiluminescence signal against the logarithm of the FN3 domain molar concentration and IC50 values were determined by fitting data to a sigmoidal dose response with variable slope using GraphPad Prism 4 (GraphPad Software). […]

IC50 [1]: 7.1 nM | IC50 [2]: 295 nM
B1: P54AR4-47: EGFR-binding FN3 domain, SEQ ID NO: 20 (protein)
chain: LPAPKNLVVSEVTEDSLRLSWGYNGDHFDSFLIQYQESEKVGEAINLTVPGSERSYDLTGLKPGTEYTVSIYGVHNVYKDTNMRGLPLSAEFTT
modifications: EGFR binding FN3 domain
